In IntAct's records for PubMed 30496485:

B1: Coiled-coil-helix-coiled-coil-helix domain-containing protein 2 (Homo sapiens), Q9Y6H1 (parent)
chain: MPRGSRSRTSRMAPPASRAPQMRAAPRPAPVAQPPAAAPPSAVGSSAAAPRQPGLMAQMATTAAGVAVGSAVGHTLGHAITGGFSGGSNAEPARPDITYQEPQGTQPAQQQQPCLYEIKQFLECAQNQGDIKLCEGFNEVLKQCRLANGLA
partner: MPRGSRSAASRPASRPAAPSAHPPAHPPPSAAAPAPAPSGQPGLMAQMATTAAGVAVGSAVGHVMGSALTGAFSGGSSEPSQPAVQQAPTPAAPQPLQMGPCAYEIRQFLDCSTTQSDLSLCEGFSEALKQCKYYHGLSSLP

Variants of: B1
Settings: with chc10_human CHCHD10, Q8WYQ3

Variant	effect of a mutation on the interaction
R145Q	disrupting interaction strength
T61I	disrupting interaction strength
